Measurements taken from the domain aggregation screens of Martell et al. (2025).

Assay: soluble fraction after stress (log2 fold change); higher = more stays soluble; pooled small domains, quantitative proteomics
Details: stress: 50 degC
Summary of the method: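 After stress at 50°C, the amount of each protein still soluble was measured. This was done on pooled custom libraries of small protein domains, using high-throughput quantitative proteomics. The figure given is a base-two log fold change and stands for aggregation propensity, with higher values meaning more protein stays in solution.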

Sequence | soluble fraction (log2)
HMEKGIVSNKTDKGYGFIRSSTGESIFVHINNVGKEAYEQLAKGSRVLFDYEVTDRGKRATKVMLEPSES | 0.0488
HMPLLADLPNLLRKVLKQHPGRVVDVDLERGRQGREIYHVRVLQENGQVRGLFVDASTGELVS | -0.224
HMSSWEVLAEPIQTVMRRYGVPGAYEKLKEVTRGKSLTAEALHALIRSLDIPQADKERLLALTPAAWA | -0.703
HMPDDHFIRGYVTAVLEQVLKVPSIQVEVERGVVILRGDLPGEERQELLDAVSRIHGVARVEYIPL | -0.0295
HMNPETPAQQAVRKRLIVSVQFYRRLKDTPLKAVWQVAARDTLVNGYNLFLKRNIHAFNDRTLSTPSALS | -0.0672
HMDDHLSFLAARLPDGASFDTDFDALGIDSFGMIALRAEVEERLGEQIADSDWTKVERPSEILAMLERK | -0.272
HMQENVIIYPNPTKSVIYLSEKVEFILYNILGEIIFIGDNNKIDLNSFDNGVYIFESGNVRTQIIK | 0.0489
HMRITEGEIVEIQEGDNRALVGVGEKLEGIISLDEIRGADGKLLFNVGDKITVMVMGHYNERPK | 0.15
HMQAALEVQASAGVLAPVPPDQRQALLDTLAQDPRPGYQHEAGRVYGFPFGGFEVRFTVSDGLLTVLSAYK | -1.7
HMREKMKGKILDYNFQESRGIISADDGNRYSFENSQWKGTQSPKVNQIVDFEIDGQNAKDIYLDK | 0.162
HMDLVIALNSRIRVIREPFFGKLGTVIDLPHKLHKMESGTMTRVAKIKFDDRTEEIIPRTNLEVILS | -2.69
HMSKLIDQELINFFKNQIESKSFRYGVSIEDSYEEIKSNQIKFYGEQEDKLKAIDNAFIELKRERAGIR | -0.00405
HMEQLESAVASRTLIGQAQGVIMERYGLSAPNAFSVLSRISQDSNTKLAEVAQQIVATRRIPG | -0.188
HMNNIYFSPVVEENNKGLRLDKFLAASFPEFSRSQLQRLILEGNVSNDDVVIADNSQKVRVGDSFQVIVPE | -0.0377
HMDHKSALQELLAPRGLQPSYRLVEEAGPAHARVFTSEVSVDGVARGSGTGTTIKMSEQAAAREALASLG | 0.223
HMSEFSDRFRLLKDESGATLKELSEQLDITVPNLSYYMKGREPSYDILIKIADYFGVTTDWLIGRTDER | -0.547
HMRRADRLLQLIQILRRHRRPVTGDVMARELEVSLRTVYRDIATLTIEGVPIRGEAGVGYVLGEGY | -2.39
HMGSAIAHAIASLPDRYRELLLLKYDTGYSEKEIAQLLGMTEANVKKTIQRAKAKLQTLLDEMEA | -0.81
HMATGTVKWFNPNKGFGFIQQDDASKDVFVHSNELNGVYINEGDKVEFDVVETEKGLSAQNIKK | -0.0828
HMNLGDSLFHARRKQGLSQEAVAEQLGVSRQTVSKWEANETLPDIRQSKLMAKLYHTSLDELI | 0.00427
HMKMAKTIKEIAEEIGVSKQAVFKKIKQVPLSTEIEKFISTVDGKKLVSVDGENLIKQAFQR | 0.325
HMQVSDLSAIDSLIDKVLSEQQAAVQDFRSGQGKAMGFLIGKVMQASDGKANPKVIRELMGKKLA | 0.159
HMKNKIYGTIVSSTSGEETVYKVFQVDSSKDITYLFRPDMIRLAHENNQALEFNEETGRGKRIEMSDLPK | 0.0213
HMRRKDIEFTNTMLEELYRHNSKWYDAVVRAYALEIPQKQIAEEMGIRLEAFQSMLFRAKKWIKTKYEADY | -2.51
HMTPKTSVPKPGQTVVVRKGDTIYALARIHDITPADLIAWNRLDNPSQIYPGQVIRLYPQGA | -0.107

Sequence | soluble fraction (log2)
HMSELDSYIGARLRMRRLMLGMSQEALGEKLSLTFQQIQKYEKGTNRVSASRLYELAQVLDVPVQFFFDGA | -2.93
HMAADDGSARAEQLREMYSLISGLDKLDKAIILMWLDERSYDEIAEVTGFTRNNVATRLHRIKSRLARQSN | -0.783
HMAPTVPEVVRLEEGAARSAIEAAGLSVGSVEFRASSDPAGTVLATRPIAGRKVRPSSAVDLVLSDGRTP | 0.0905
HMATEVEVPDVVGRQMALATQLLEARKLRVNVAEIYDEKTPPGQVVSQSPEAGSSVKEERVVTIYVSR | -0.0321
HMASINRIENKNGKVVYRIIVSLGYDKQGKKLKKTITYNVNQTATKKQQENEALKYALDIEDKIKNGHD | -1.44
HMAEEPLRIWTDLQGRSIEASFIKFSGNNIVIKMKSGRDYEVARSLFSPGDQKYLSDLKKSTPE | -0.701
HMDIPDIGHNVRIEVDGHNGKTTHEGIILHPAAPNHITIKLANGYNASYKLEEIINIEILGELGDDSKI | -0.0692
HMRGINDLSLVDPQGRIRKDGEQYVVAFGRHKGKEISQIISQDPSYLNWLLSPKGIEDDATRELIRTQYS | -0.0415
HMGPEVQLAYSEFLAKVKVGEVNDVMVKGNEIHGHFSDGRTFSTYSPNDPDLVEKLNKNKVMIKAAPP | 0.0475
HMAVSGRMMVYEYIRQQMREGSLLPGSVLDLPAISHKLGISNTPLRDSLIRLEAEGYLTIYPRSKVVIN | -2.87
HMNLNLDITTYKLEELENLLKLKPNYKQEQIFEAKTKMEKFILKSNLNESKREELYIFLDNIYNKLTNNLL | -2.17
HMAISQYGSQSDEVTKIQTRLKAWGYFDGPVTAYYGSQTTEAVKKFQQKHGLSATGVADAKTLELIGLP | -0.36
HMGDLAAAGNHTLEVMGFPQHPDESYRHFVGNGIPKLIERMLPAGHDKETEQKAYDIFMEYYSAHK | 0.227
HMSHGYVELKAENNDALISALENHTWFENIKLDPETNLVKAILTKPIEAENLNKMLFEKGIILSHLVKRK | -0.0853
HMETFNMTQKEITRLRVINQAIDKVITIREAAELLGLSERQVIRLKGGVEKFGPAFIIHKNRGRKP | -0.71
HMGEGRVRLAQEAANRFMTAMAGDRPGFEEAGRALFAGDRARFHAETEGWPEDIRDHARRLAEPALQ | 0.0288
HMNPAIYIRKNILNLTQEKLSEYLDVTQPTIHRWEESGVIPAKHQRQIREFASEKGIYWNDSWFFSIPDE | -0.953
HMYHKKEKAQAANIEERIMILLSDGKHHHITEIKAIYVDEVITLNILEEMLAEEKVIIEGDMIMLVE | -3
HMVTLPLLKRGHTGLPVKALQTLLVLRGMSVDVDGSFGEKTESAVRTFQTAAKILSDGEVGKDTWKALI | -1.43
HMKEPQLGPVRKWSDQTGNFGIEAQFVKREGDNILLKRADQRTISIPLEKLSDADQEHLKQEEQKQAME | -0.138
HMGDFNYVMPDFRGLEAHDVSSFLNRNGFLLRPTEHEVSFTQRPGLILMHYPEPGYPFSRSSPITLVVS | -1.03
HMEDEVYFVPSPASRFNPWIAALASRRVPYRVEYDGAERRIAVPAGYAEKAGEELAAYERINHAWPR | -0.271
HMEGMQATVTQITDEGITVRYVMNGQMVTRTLTSDEVAFVNRGQAVSDLAGAYRVGQTVWIY | -0.0401
HMRRIADVVPEQLTREEAEELLETLAEQGEIHEEQALLARYILEQSLQGVAPEVEPLIRAKLLAGILMVY | -1.69
HMSRMGDSIKSLRSRNNMSQDALAEKLNVTRQAISNWENSKTQPDADTLKNLGIIFNVTVDEIINNDF | 0.0528

Sequence | soluble fraction (log2)
HMVIQRQIPPLVTRMLDGLEQFIQLDMPFDLDTRLGNIEAVRANMDRSDVTSAEAYRQVLELYSIELQ | -0.2
HMDDSVVFSLNAKGIRLTGAGKYGEAIALFDKAIAAKPGLSGLYFNRAEARRLSGDLPGARSDLEQALAI | -0.453
HMAPVLTATVNTTSGKLNMRAAASATSAKLTSIPRGATVTVLEKGTTWSRISYGGYTGYVMTQYLKFD | -0.167
HMGEDPYQMLGLTRQASDEEVRLAWRKLMRENHPDSLASRGVPQEFVKRATEQVAQINAAWDRIKRERG | 0.0386
HMYAVDTIHKGTITEMTDKGAVVSLGDNIDGFAPARQLVKEDGTTLKLGDTADFKVIEFSKATKRITLSH | 0.286
HMSADDLVSRTQAIVAELKDLEGPLLPILHSVQEAFGHVPDEVKPVIAEALNLSRAEVHGVVSFYHDFRAH | -0.112
HMHVVVIDKQGALSYQGKAITLLDLKNIVIDVPKETPFLIKADKDIHLQSFVEVLDLIKTAGFKKVSLQ | -0.182
HMQSYHVGDKVTIKNSASHWATGQSIYNGVKGHTYKIIQTNGHKLLLDQVISWINDGDVYKAGS | -0.492
HMLAIELDDKPGSLLRALEIFAKRNLNIEYMYAFTEKRGDKAVMIFKFSDIETAKKSLLEEGFN | -1.64
HMSHGFVHLKGAVQHPGIYPVKENTRWDEVVKAAGGLTAAADIQQVNLAKVASDQESLYVPEKGET | 0.098
HMSNYFIEISKDSLARINDEIELDVLRETSDTIIISQEEKTNTISSFIKVLFERQIDILSIQNR | 0.000151
HMERQAEAWTNRASALISLGRDEEALEAADRAIELDPRLSKAWIDRSTALSNLGRNDEANEAIQMAMFL | 0.108
HMDPASYEARLSTLREQGAQQLDPVRFQYLATLAQRLPTQTPGVALILANKLRAGLSDYEQRLSEAGS | -0.0289
HMKHKYWEIKERIKKDILNEVYKKGESIPSERDLAGIYDVTRVTVQKAMAMLVQEGYIERIHGKGMFVLKN | -0.801
HMAWAVDVGVVGLFPGKAVLVIDGGAPRTVPVGANVGGVRLLAVDQGSATVEIGGKRQRLAIGQHAH | -0.402
HMPSRPIQVASFSKEDNAKRAAEALAKIGVTATPQKSEKAGKAVWGVVVTGDDAMLQKIKDAGFADAYFL | 0.0921
HMSKKAIVINLLKRPDGASLKDIMQATYWQAHSVRGFISGSLTKKMGLNVESFKRPDGERAYRIN | -2.3
HMRDRYEYLKELRLYLSPLGRTEEDRVIEYYAELIGDKIESGIPENGVLSQLGTPRELADKILAETQEY | -0.35
HMLQNLGFKPDLEIRHFPGIVLPDIHRSKKTISLLYTLLAGDIKKLPENEINYKDSKIISSYLWTLLRYH | 0.0237
HMDLIISDIRMPEMRGDDFLEWIKANELFKHIPVIMLSSEDSTTERIRLLEIGAEDYIVKPFNPMELKIR | -0.505
HMDRKARRKYIEQVVNDRKIETQEELLKLLTEAGFETTQATISRDIHALNIVKANDGDGHTHYVQLH | 0.144
HMVRVSELAIEPRLVVEETATGFVGAVVRYANGLIELEDRHGAVRTFPLGPGYLVDGRPVSLVKPT | -0.371
HMPSKKHARWIELEARKFMADNEDAVSDLHELRTRAANFAALKTSTLPVDQHRAIVAGFVARVNELGRRI | -0.631
HMSTVAETVYNEIRDDILYGELQPGVKLKLEALRERYSVGVNTLREVLNRLVASGFVFVEGQKGFRVV | 0.0966
HMTQEQKQQISDQLRAYVEQKGSGNKAAASMNGVSSATISKVLAGKWETISEDMWRSIAAQTGH | 0.106
